Data on two molecules can be found in publication doi:10.1101/2023.05.01.538930 (bioRxiv, 2023).

The target in series [1] is T1, GajA of the Gabija system from Bacillus cereus VD045 (Bacillus cereus VD045, UniProt J8H9C1 1-578).
T1 sequence (looked up): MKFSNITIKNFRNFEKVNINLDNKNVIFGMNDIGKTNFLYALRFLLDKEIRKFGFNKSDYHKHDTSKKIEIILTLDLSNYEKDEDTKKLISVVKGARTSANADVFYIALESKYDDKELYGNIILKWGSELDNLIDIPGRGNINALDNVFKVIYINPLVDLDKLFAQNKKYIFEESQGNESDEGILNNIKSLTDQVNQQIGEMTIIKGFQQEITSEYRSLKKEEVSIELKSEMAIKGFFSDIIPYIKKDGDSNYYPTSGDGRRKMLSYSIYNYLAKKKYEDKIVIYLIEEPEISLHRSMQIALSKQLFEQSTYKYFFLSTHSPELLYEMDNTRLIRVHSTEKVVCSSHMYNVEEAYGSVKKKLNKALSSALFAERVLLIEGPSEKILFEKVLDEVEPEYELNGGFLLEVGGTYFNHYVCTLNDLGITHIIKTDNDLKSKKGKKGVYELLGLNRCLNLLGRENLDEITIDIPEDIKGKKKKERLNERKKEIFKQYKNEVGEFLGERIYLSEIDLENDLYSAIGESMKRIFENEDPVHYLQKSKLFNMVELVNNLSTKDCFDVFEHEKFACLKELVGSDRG
In words: reconstitution of the complex from purified proteins.

The series “crystal structure” concerns the molecule itself. In words: crystal structure.

B1: GajB of the Gabija system from Bacillus cereus VD045 (natural protein, UniProt J8HQ06 1-494, looked up)
chain: MSREQIIKDGGNILVTAGAGSGKTTILVSKIEADLKENKTHYSIAAVTFTNKAAKEIEGRLGYSSRGNFIGTNDGFVESEIIRPFIKDAFGNDYPDNFTAEYFDNQFASYDKGLQVLKYQNILGTYSNPKKNFKFQLALDILKKSLVARQYIFSKYFKIFIDEYQDSDKDMHNLFMYLKDQLKIKLFIVGDPKQSIYIWRGAEPENFNGLIENSTDFNKYHLTSNFRCCQDIQNYSNLFNEETRSLIKEKNEVQNVISIADDMPISDILLKLTEEKQVLNIEAELVILVRRRNQAIEIMKELNEEGFNFIFIPQTPLDRATPNATLLKEVIKYVKNDRYSIYDLAAEIVGNLSSREIKEIQKIINELLVPNINQVLINQVLINLFAKLEITLDTREITAFTEVMMTNEFDIAFDTNEYLHKIFTVHSAKGLEFNQVIITASDYNVHYNRDTNEHYVATTRAKDKLIVIMDNKKYSDYIETLMKELKIKNIIKSI
As for B1, the binding result in series [1] is reported as “binds”.

B2: Tad2 from phage SPO1 (construct for crystallization) (natural protein, Bacillus phage SPO1)
chain: MKTKMSFGEALEVLKQGMQVYRSGWNGKNMFLFLKSSDALASDFGFGFGEYINEPVFGNIIFIKTADNKIHAWVPSQTDVLAEDWDIVS
With B2, in the series “crystal structure”, the stoichiometry N (commonly a count of units in the complex or per binding partner) stood at 4.
